From patent publication US12440565 (ZSKY BIOTECH, dated 2025)

Target: CD40 on the surface of mature dendritic cells (mDC) (human, UniProt P25942 21-277)
Assay: cell-based or functional assay

Sequence of CD40 on the surface of mature dendritic cells (mDC) (P25942 21-277): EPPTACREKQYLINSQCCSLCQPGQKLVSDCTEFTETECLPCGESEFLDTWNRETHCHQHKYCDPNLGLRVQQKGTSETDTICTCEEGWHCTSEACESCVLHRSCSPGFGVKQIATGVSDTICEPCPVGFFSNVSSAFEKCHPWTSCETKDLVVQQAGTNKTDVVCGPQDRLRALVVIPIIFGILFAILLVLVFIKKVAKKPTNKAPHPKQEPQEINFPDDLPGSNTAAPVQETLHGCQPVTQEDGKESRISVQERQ

increase rate of CD83 positive ratio over control, bispecific antibody: 19%
B1: CD40-PD-L1-IgG4 bispecific antibody (bispecific antibody)
light 1: DIQMTQSPSSLSASVGDRVTIKCQASQSISSRLAWYQQKPGKPPKLLIYRASTLASGVPSRFSGSGSGTDFTLTISSLQPEDVATYYCQCTGYGISWPIGGGTKVEIKRTVAAPSVFIFPPSDEQLKSGTASVVCLLNNFYPREAKVQWKVDNALQSGNSQESVTEQDSKDSTYSLSSTLTLSKADYEKHKVYACEVTHQGLSSPVTKSFNRGEC
heavy 1: not shown
light 2: QVQLVQSGAEVKKPGASVKVSCKASGYTFTSYWMHWVRQAPGQGLEWMGRIGPNSGFTSYNEKFKNRVTMTRDTSTSTVYMELSSLRSEDTAVYYCARGGSSYDYFDYWGQGTTVTVSSASVAAPSVFIFPPSDRKLKSGTASVVCLLNNFYPREAKVQWKVDNALQSGNSQESVTEQDSKDSTYSLSSTLTLSKADYEKHKVYACEVTHQGLSSPVTKSFNRGEC
heavy 2: DIVLTQSPASLAVSPGQRATITCRASESVSIHGTHLMHWYQQKPGQPPKLLIYAASNLESGVPARFSGSGSGTDFTLTINPVEAEDTANYYCQQSFEDPLTFGQGTKLEIKASTKGPSVFPLAPCSRSTSESTAALGCLVEDYFPEPVTVSWNSGALTSGVHTFPAVLQSSGLYSLSSVVTVPSSSLGTQTYTCNVDHKPSNTKVDEKVESKYGPPCPPCPAPEFEGGPSVFLFPPKPKDTLMISRTPEVTCVVVDVSQEDPEVQFNWYVDGVEVHNAKTKPREEQFNSTYRVVSVLTVLHQDWLNGKEYKCKVSNKGLPSSIEKTISKAKGQPREPQVCTLPPSQEEMTKNQVSLSCAVKGFYPSDIAVEWESNGQPENNYKTTPPVLDSDGSFFLVSRLTVDKSRWQEGNVFSCSVMHEALHNHYTQKSLSLSLGK
